Assay results published in PMC5095699 (Biochemistry, 2015).
Read-outs that look alike come from different tables or passages of the source.

Experiments:
[1] = target: QdtA (Thermoanaerobacterium thermosaccharolyticum, UniProt Q6TFC5, Y17R/R97H); assay: X-ray crystal structure, […] A; assay type: binding; settings: dTDP co-purified from E. coli, not added; pH 6; active site
[2] = target: 3,4-ketoisomerase domain of FdtD from Shewanella denitrificans (Shewanella denitrificans); assay: crystal structure
[3] = target: 3,4-ketoisomerase domain of FdtD (Shewanella denitrificans, UniProt Q12KT8); assay: X-ray crystal structure, […] A; assay type: binding; settings: crystal soaked with 3 mM ligand, pH 7; active site, substrate analogue
[4] = substrate: Cc1cn([C@H]2C[C@H](O)[C@@H](COP(=O)(O)OP(=O)(O)O[C@H]3O[C@H](C)C(=O)[C@H](O)[C@H]3O)O2)c(=O)[nH]c1=O; assay: purified protein; settings: 50 mM HEPES pH 7.5, 0.2 mM NADPH, 1 mg/mL KijD10
[5] = substrate: Cc1cn([C@H]2C[C@H](O)[C@@H](COP(=O)(O)OP(=O)(O)O[C@H]3O[C@H](C)C(=O)[C@H](O)[C@H]3O)O2)c(=O)[nH]c1=O; assay: purified protein; assay type: biochemical, Thermoanaerobacterium thermosaccharolyticum; settings: 50 mM HEPES pH 7.5, 0.2 mM NADPH, 1 mg/mL KijD10
[6] = target: the molecule itself; assay: crystal structure
[7] = target: the molecule itself; assay: crystal structure; remark: listed apart in the source
[8] = substrate: Cc1cn([C@H]2C[C@H](O)[C@@H](COP(=O)(O)OP(=O)(O)O[C@H]3O[C@H](C)C(=O)[C@H](O)[C@H]3O)O2)c(=O)[nH]c1=O; assay: purified protein; assay type: biochemical, Shewanella denitrificans; settings: 50 mM HEPES pH 7.5, 0.2 mM NADPH, 1 mg/mL KijD10

Cc1cn([C@H]2C[C@H](O)[C@@H](COP(=O)(O)OP(=O)(O)O)O2)c(=O)[nH]c1=O [dTDP]
X-ray crystal structure, 2.3 A [1]: Observed electron density for the dTDP moiety bound to the QdtA Y17R/R97H mutant enzyme

3,4-ketoisomerase domain of FdtD from Shewanella denitrificans (domain or fragment)
stoichiometry N [2]: 2

Cc1cn([C@H]2C[C@H](O)[C@@H](COP(=O)(O)OP(=O)(O)O[C@H]3O[C@H](C)[C@@H](NC=O)[C@H](O)[C@H]3O)O2)c(=O)[nH]c1=O [dTDP-4,6-dideoxy-4-formamido-glucose]
X-ray crystal structure, 1.7 A [3]: structure of the enzyme was solved in the presence of dTDP-4,6-dideoxy-4-formamido-D-glucose

B1: QdtA (Thermoanaerobacterium thermosaccharolyticum; Y17R) (protein)
chain: MLYNVALIKFKDIADKRGHLTPIEGKIDIPFDIKRVYYITKVDKDITRGYHAHKKLHQVLICLNGSVKIRLKIPDEEKIIELNDPSVGLYIGPFLWREMFDFTEGCVLLVLASEYCDETDYIRNYDFYIDEAKKRF
Km [4]: 370 ± 60 µM

B2: QdtA (Thermoanaerobacterium thermosaccharolyticum; Y37F) (protein)
chain: MLYNVALIKFKDIADKYGHLTPIEGKIDIPFDIKRVFYITKVDKDITRGYHAHKKLHQVLICLNGSVKIRLKIPDEEKIIELNDPSVGLYIGPFLWREMFDFTEGCVLLVLASEYCDETDYIRNYDFYIDEAKKRF
Km [5]: 34 ± 7 µM | kcat [5]: 0.023 ± 0.004 s⁻¹ | kcat/Km [5]: 690 M⁻¹ s⁻¹

B3: QdtA from Thermoanaerobacterium thermosaccharolyticum, wild-type apoenzyme (enzyme)
chain: MLYNVALIKFKDIADKYGHLTPIEGKIDIPFDIKRVYYITKVDKDITRGYHAHKKLHQVLICLNGSVKIRLKIPDEEKIIELNDPSVGLYIGPFLWREMFDFTEGCVLLVLASEYCDETDYIRNYDFYIDEAKKRF
Km [5]: 140 ± 10 µM | kcat [5]: 3.85 ± 0.25 s⁻¹ | kcat/Km [5]: 28000 M⁻¹ s⁻¹ | stoichiometry N [6]: 2

B4: QdtA Y17R/R97H double mutant from Thermoanaerobacterium thermosaccharolyticum (enzyme)
chain: MLYNVALIKFKDIADKRGHLTPIEGKIDIPFDIKRVYYITKVDKDITRGYHAHKKLHQVLICLNGSVKIRLKIPDEEKIIELNDPSVGLYIGPFLWHEMFDFTEGCVLLVLASEYCDETDYIRNYDFYIDEAKKRF
Km [4]: 21 ± 5 µM | stoichiometry N [7]: 2

B5: QdtA (Thermoanaerobacterium thermosaccharolyticum; R97H) (protein)
chain: MLYNVALIKFKDIADKYGHLTPIEGKIDIPFDIKRVYYITKVDKDITRGYHAHKKLHQVLICLNGSVKIRLKIPDEEKIIELNDPSVGLYIGPFLWHEMFDFTEGCVLLVLASEYCDETDYIRNYDFYIDEAKKRF
Km [5]: 61 ± 9 µM | kcat [5]: 0.4 ± 0.06 s⁻¹ | kcat/Km [5]: 6500 M⁻¹ s⁻¹

B6: 3,4-ketoisomerase domain of FdtD (Shewanella denitrificans OS217) (protein)
chain: SNNFELKLQMSKVKGVSLHKFHLVNDLRGNLSVGEFEKDIPFTPKRYFTVFGVPNKEVRGEHAHKECKQFLICVSGNCSVLVDDGENREEYVLDSIDKGIYLPPMTWGVQYKYSKDAVLLVFASHYYDSDDYIRDYSTFKQMRQN
Km [8]: 790 ± 120 µM | kcat [8]: 4.85 ± 0.56 s⁻¹ | kcat/Km [8]: 6100 M⁻¹ s⁻¹
